Patent US20210380703A1 (RIGEL PHARMACEUTICALS, published 2021)
Where a chain is given by its changes, count along the chain named.

B1: 366_A08 (antibody, V domains shown)
VH: EVQLLESGGGLVQPGGSLRLSCAASGFTFDDYSMNWVRQAPGKGLEWVSGINYNSGYKGYADSVKGRFTISRDNSKNTLYLQMNSLRAEDTAVYYCARGANWHDTHLDYWGQGTLVTVSS
VL: DIQMTQSPSSLSASVGDRVTITCRASQSIVSYVNWYQQKPGKAPKLVIYAATSRASGVPSRFSGSGSGTDFTLTISSLQPEDFATYYCQQSYNSPLTFGGGTKVEIK
notes: Group III
B2: 366_B05 (antibody, V domains shown)
VH: B1 VH with D30S, G59S, H106A
VL: B1 VL with V30S, V33L, A51V, N93E, S94L
notes: Group III
B3: 370_A03 (antibody, V domains shown)
VH: B1 VH with D30S, D31S, G50N, S55G, K58T, G59S, G99S, H106A
VL: B1 VL with V30L, V33L, V47L, N93D
B4: 368_A01 (antibody, V domains shown)
VH: B1 VH with D30S, D31S, S33G, G50N, S55G, K58T, G59S, G99S, H106A
VL: B1 VL with V30I, V33L, V47L, A55H, N93D, S94N
B5: 368_A05 (antibody, V domains shown)
VH: B1 VH with D30S, D31S, S49A, K58T, G99S, H106A
VL: B1 VL with V33L, N93D
B6: 367_E01 (antibody, V domains shown)
VH: B1 VH with D30S, D31S, S33G, S49A, S55G, G59S, G99S, H106A
VL: B1 VL with V30L, V47L, A51T, N93D, S94L
B7: 367_C01 (antibody, V domains shown)
VH: B1 VH with S55G, G59S, G99S
VL: B1 VL with V30L, S31T, V33L, A51T, R54L, A55H, N93D, S94T
B8: 368_A09 (antibody, V domains shown)
VH: B1 VH with D31S, S55G, K58T, G59S, G99S
VL: B1 VL with V30L, V47L, A51V, N93D
B9: 367_G05 (antibody, V domains shown)
VH: B1 VH with D30S, S33G, S49A, G50N, S55G, K58T, G59S, G99S, H106A
VL: B1 VL with V33L, R54L, N93D, S94T
B10: 368_B01 (antibody, V domains shown)
VH: B1 VH with D30S, D31S, S33G, G59S, G99S, H106A
VL: B1 VL with V30S, V33L, V47L, N93E, S94T
B11: 367_E09 (antibody, V domains shown)
VH: B1 VH with D30S, S33G, S49A, G50S, G99S, H106A
VL: B1 VL with V30L, V33L, A51T, N93E, S94T
B12: 367_E06 (antibody, V domains shown)
VH: B1 VH with D31S, G50S, G99S
VL: not shown
B13: 367_F11 (antibody, V domains shown)
VH: B1 VH with D30S, D31S, S49A, K58T, G99S
VL: not shown
B14: 367_E04 (antibody, V domains shown)
VH: B1 VH with D30S, G50S, S55G, G99S
VL: B1 VL with V30L, V33L, V47L, N93E
B15: 368_B06 (antibody, V domains shown)
VH: B1 VH with D31S, S33G, N35H, K58T, G59S, G99S, H106A
VL: not shown
B16: 367_D10 (antibody, V domains shown)
VH: B1 VH with D31S, S33G, G50N, S55G, K58T, G59S, G99S, H106A
VL: B1 VL with V30I, V33L, N93D, S94T
B17: 367_C11 (antibody, V domains shown)
VH: B1 VH with D31S, G50S, K58T, G99S
VL: B1 VL with V30L, V33L, A55H, S94T
B18: 367_F03 (antibody, V domains shown)
VH: B1 VH with D30S, D31S, S49A, G59S, G99S, H106A
VL: B1 VL with V30L, R54L, Y92D, N93D, S94T
B19: 367_E11 (antibody, V domains shown)
VH: B1 VH with D31S, S33G, G50S, G99S
VL: B1 VL with A55H, N93D, S94T
B20: 368_A07 (antibody, V domains shown)
VH: B1 VH with D30S, D31S, S49A, K58T, G59S, G99S
VL: B1 VL with V30L, S31T, V33L, A51T, Y92N, N93E, S94L
B21: 367_C05 (antibody, V domains shown)
VH: B1 VH with S33G, G50S, S55G, K58T, G99S
VL: B1 VL with V30L, A55H, N93D, S94L
B22: 367_F07 (antibody, V domains shown)
VH: B1 VH with D31S, S33G, N35H, S49A, G50N, S55G, K58T, G99S, H106A
VL: B1 VL with V30I, V47L, N93E, S94T
B23: 367_G10 (antibody, V domains shown)
VH: B1 VH with S33G, S55G, K58T, G59S, G99S, H106A
VL: B1 VL with V30I, V47L, N93D
B24: 367_G06 (antibody, V domains shown)
VH: B1 VH with D30S, D31S, S33G, G59S, G99S
VL: B1 VL with V30L, S31T, V47L, A51T, R54L, A55H, N93D, S94T
B25: 367_H06 (antibody, V domains shown)
VH: B1 VH with D30S, D31S, S33G, G50N, S55G, K58T, G99S
VL: B1 VL with V30I, S31T, V33L, V47L, N93D, S94T
B26: 367_H11 (antibody, V domains shown)
VH: B1 VH with D30S, D31S, S33G, S49A, S55G, G99S, H106A
VL: B1 VL with V30I

What follows are binders tested against T1, human ACVR2A (human, UniProt P27037 20-135, limits assumed) (assay: ELISA).
T1 construct: also called activin receptor, type II A
Method in brief: (§1)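 Monoclonal antibodies were first applied to human or mouse ACVR2A, alongside biotinylated goat anti-human kappa light chain (positive control) and human Fc (negative control); binding was then determined by ELISA.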
Also: test concentration or dose not given here.

T1 sequence (P27037 20-135 limits assumed): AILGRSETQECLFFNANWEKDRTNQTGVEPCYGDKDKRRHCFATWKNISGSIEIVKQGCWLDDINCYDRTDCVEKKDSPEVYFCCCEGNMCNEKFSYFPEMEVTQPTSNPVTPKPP

Row | optical density [OD] | Binder
1 | 1.65 | B1
2 | 2.38 | B2

The binders below were run against mouse ACVR2A (mouse, UniProt P27038 20-135, limits assumed) (assay: ELISA).
Method in brief: as §1

Sequence of mouse ACVR2A (P27038 20-135 limits assumed): as the sequence (P27037 20-135 limits assumed) above, with K20R, V73I counted along it

Row | optical density [OD] | Binder
3 | 1.73 | B1
4 | 2.46 | B2

What follows are binders tested against T2, Human ACVR2A (human, UniProt P27037 20-135, limits assumed) (assay: ELISA).
T2 construct: also called activin receptor, type II A
Method in brief: as §1

T2 sequence (P27037 20-135 limits assumed): as the sequence (P27037 20-135 limits assumed) above

Row | optical density [OD] | Binder
5 | 3.54 | B3
6 | 2.99 | B4
7 | 2.71 | B5
8 | 2.55 | B6
9 | 2.62 | B7
10 | 2.51 | B8
11 | 2.41 | B9
12 | 2.61 | B10
13 | 1.66 | B11
14 | 2.02 | B12
15 | 1.71 | B13
16 | 2.41 | B14
17 | 2.06 | B15
18 | 2.7 | B16
19 | 2.33 | B17
20 | 2.1 | B18
21 | 2.4 | B19
22 | 2.11 | B20
23 | 2.21 | B21
24 | 2.13 | B22
25 | 2.12 | B23
26 | 2.64 | B24
27 | 2.69 | B25
28 | 2.37 | B26

The binders below were run against Mouse ACVR2A (mouse, UniProt P27038 20-135, limits assumed) (assay: ELISA).
Method in brief: as §1

Sequence of Mouse ACVR2A (P27038 20-135 limits assumed): as the sequence (P27037 20-135 limits assumed) above, with K20R, V73I counted along it

Row | optical density [OD] | Binder
29 | 3.63 | B3
30 | 2.9 | B4
31 | 2.7 | B5
32 | 2.52 | B6
33 | 2.99 | B7
34 | 2.63 | B8
35 | 2.71 | B9
36 | 2.59 | B10
37 | 1.81 | B11
38 | 2.31 | B12
39 | 1.87 | B13
40 | 2.57 | B14
41 | 2.34 | B15
42 | 2.67 | B16
43 | 2.54 | B17
44 | 2.39 | B18
45 | 2.91 | B19
46 | 2.31 | B20
47 | 2.86 | B21
48 | 2.25 | B22
49 | 2.32 | B23
50 | 2.81 | B24
51 | 3.08 | B25
52 | 2.69 | B26

Each binder was assayed against T3, biotinylated goat anti-human kappa light chain (assay: ELISA, positive control).
T3 construct: positive control of the ELISA
Method in brief: as §1

Row | optical density [OD] | Binder
53 | 3.23 | B1
54 | 2.96 | B2

Each binder was assayed against T4, Goat anti-Human Kappa (assay: ELISA, positive control).
T4 construct: Positive control of the ELISA; also called biotinylated goat anti-human kappa light chain
Method in brief: as §1

Row | optical density [OD] | Binder
55 | 3.56 | B3
56 | 3.68 | B4
57 | 3.46 | B5
58 | 3.61 | B6
59 | 3.71 | B7
60 | 3.55 | B8
61 | 3.37 | B9
62 | 3.71 | B10
63 | 3.33 | B11
64 | 3.48 | B12
65 | 3.48 | B13
66 | 3.5 | B14
67 | 3.16 | B15
68 | 3.38 | B16
69 | 3.45 | B17
70 | 3.45 | B18
71 | 3.61 | B19
72 | 3.65 | B20
73 | 3.42 | B21
74 | 3.26 | B22
75 | 3.45 | B23
76 | 3.35 | B24
77 | 3.65 | B25
78 | 3.61 | B26
